Results as given in article doi:10.1101/2025.11.04.686334.
pKd: −log10 of the molar value.

Target: FluA-20 mAb
Assay: BLI

Sequence of FluA-20 mAb (heavy, as listed by the source, chain 1 of 2): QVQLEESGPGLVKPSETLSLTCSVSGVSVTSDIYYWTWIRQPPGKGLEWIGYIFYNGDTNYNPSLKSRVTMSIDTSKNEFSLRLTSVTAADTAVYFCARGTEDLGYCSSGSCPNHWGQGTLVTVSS
Sequence of FluA-20 mAb (light, as listed by the source, chain 2 of 2): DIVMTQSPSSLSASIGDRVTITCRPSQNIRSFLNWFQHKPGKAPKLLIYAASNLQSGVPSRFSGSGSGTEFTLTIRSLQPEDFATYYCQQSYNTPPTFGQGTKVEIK
Sequence of HA220-2 (Q9NZ52 16-146): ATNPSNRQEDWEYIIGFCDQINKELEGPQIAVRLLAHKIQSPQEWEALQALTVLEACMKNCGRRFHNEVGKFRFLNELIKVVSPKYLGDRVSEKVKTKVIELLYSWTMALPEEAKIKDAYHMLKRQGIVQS

HA220-2 (from UniProt Q9NZ52 16-146)
pKd: 6.01
